{"source": "paper PMC6900184", "about": "“The Escherichia coli MarA protein regulates the ycgZ‐ymgABC operon to inhibit biofilm formation”", "binders": {"B1": {"name": "ycgZ.1m (dsDNA)", "DNA 1": "AATTCATATGCATTACGTCTAATTCGAAAAAATTAATTTATCATTCTGTACACATATTTCGTACAAGTTTGCTATTGTTACTTCACTTAACATTGATTAACATTTTTAACAGAGGCGTAGCATGA", "DNA 2": "AGCTTCATGCTACGCCTCTGTTAAAAATGTTAATCAATGTTAAGTGAAGTAACAATAGCAAACTTGTACGAAATATGTGTACAGAATGATAAATTAATTTTTTCGAATTAGACGTAATGCATATG"}}, "molecular_target": "T1, MarA (Escherichia coli, UniProt P0ACH5 1-127)", "T1 sequence": "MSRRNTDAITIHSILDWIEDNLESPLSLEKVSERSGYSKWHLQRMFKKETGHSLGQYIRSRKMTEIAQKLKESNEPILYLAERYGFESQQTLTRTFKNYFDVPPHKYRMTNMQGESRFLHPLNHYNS", "test": "EMSA; MarA 0.4, 1.2, 2.0 uM; EMSA: 20 mM Tris pH 7, 10 mM MgCl2, 100 mM EDTA (so in the source), 120 mM KCl; 5% polyacrylamide gel; temperature not stated", "conditions": "protein: recombinant; tags: N-terminal His6 tag (pET28a) removed by thrombin; label: 5'-32P; 5' overhang 4 nt at both ends (EcoRI, HindIII)", "data": [{"binder": "B1", "values": [{"measurement": "binding result", "value": "no binding"}]}]}
